Data set [1] in a line: LCMS, IgG1 BsAb co-expression; HCA homodimer species.
For data set [2], the target named is matuzumab HC_20.8_B + matuzumab LC (IgG1). Briefly: LCMS, IgG1 BsAb co-expression; HCA/HCB heterodimer carrying two LC2.
Data set [3] shares this target. Briefly: LCMS, IgG1 BsAb co-expression; HCA/HCB heterodimer carrying two LC1.
The target is the same in data set [4]. The experiment in a line: LCMS, IgG1 BsAb co-expression in HEK293F.
Data set [5] can be described thus: LCMS, IgG4 BsAb co-expression; HCB homodimer species.
Data set [6] in a line: LCMS, IgG1 BsAb co-expression; HCB homodimer species.
For data set [7], the target named is T1, HA-tagged human IgG1 Fc portion with CH3 mutations Y349S, K370Y, T366M, K409V.
T1 chain: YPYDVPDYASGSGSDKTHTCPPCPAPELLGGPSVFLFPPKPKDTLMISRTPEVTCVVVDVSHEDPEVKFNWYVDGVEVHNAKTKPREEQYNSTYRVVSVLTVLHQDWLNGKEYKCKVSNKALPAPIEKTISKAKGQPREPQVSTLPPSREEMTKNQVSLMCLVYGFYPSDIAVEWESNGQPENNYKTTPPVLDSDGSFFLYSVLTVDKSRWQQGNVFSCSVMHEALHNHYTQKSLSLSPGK
Briefly: UPLC SEC of protein G-purified one-arm antibody co-expressed in HEK293F.

The target in data set [8] is T2, HA-tagged human IgG1 Fc portion with CH3 mutations Y349S, K370Y, T366V, K409V.
T2 chain: T1 chain with M160V
The description is as above.

[9] abbreviates: pertuzumab × matuzumab bispecific.

Residue numbers refer to the chain shown, from its start. Numbers in names are those of the source.

B1: MetMAb HC_20.8_A + MetMAb LC (IgG1) (protein)
chain 1: EVQLVESGGGLVQPGGSLRLSCAASGYTFTSYWLHWVRKAPGKGLEWVGMIDPSNSDTRFNPEFKDRFTISADTSKNTAYLQMNSLRAEDTAVYYCATYRSYVTPLDYWGQGTLVTVSSASTKGPSVFPLAPSSKSTSGGTAALGCLVKDYFPEPVTVSWNSGALTSGVATGPAVLQSSGLYSLSSVVTVPSSSLGTQTYICNVNHKPSNTKVDKKVEPKSCDKTHTCPPCPAPELLGGPSVFLFPPKPKDTLMISRTPEVTCVVVDVSHEDPEVKFNWYVDGVEVHNAKTKPREEQYQSTYRVVSVLTVLHQDWLNGKEYKCKVSNKALPAPIEKTISKAKGQPREPQVSTLPPSREEMTKNQVSLVCLVYGFYPSDIAVEWESNGQPENNYKTTPPVLDSDGSFFLYSVLTVDKSRWQQGNVFSCSVMHEALHNHYTQKSLSLSPGK
chain 2: RIQMTQSPSSLSASVGDRVTITCKSSQSLLYTSSQKNYLAWYQDKPGKAPKLLIYWASTRESGVPSRFSGSGSGTDFTLTISSLQPEDFATYYCQQYYAYPWTFGQGTKVEIKGQPKAAPSVTLFPPSSEELQANKATLVCYISDFYPGAVTVAWKADSSPVKAGVETTTPSKQSNNKYAAWSYLSLTPEQWKSHRSYSCQVTHEGSTVEKTVAPTEC
In data set [1], B1 had a % AA Homodimer (incorrect assembly) of 0%. The % AB (2x LC2) (incorrect assembly) in data set [2] was 24.4%. The % AB (2x LC1) (incorrect assembly) in data set [3] stood at 0%. In data set [4], the % AB (LC1/LC2) (correct IgG BsAb assembly) was determined as 75.6%.

B2: BHA10 HC_7.8.60_B + BHA10 LC (IgG4 HC backbone) (protein)
chain 1: QVQLVQSGAEVKKPGSSVKVSCKASGYTFTTYYLHWVRYAPGQGLEWMGWIYPGNVHAQYNEKFKGRVTITADKSTSTAYMELSSLRSEDTAVYYCARSWEGFPYWGRGTTVTVSSASTKGPSVFPLAPCSRSTSESTAALGCLVKDYFPEPVTVSWNSGALTSGVHTFPAVLQSSGLYSLSSVVTVPSSSLGTKTYTCNVDHKPSNTKVDKRVESDYGPPCPPCPAPEAAGGPSVFLFPPKPKDTLMISRTPEVTCVVVDVSQEDPEVQFNWYVDGVEVHNAKTKPREEQFQSTYRVVSVLTVLHQDWLNGKEYKCKVSNKGLPSSIEKTISKAKGQPRRPRVYTLPPSQEEMTKNQVSLVCLVKGFYPSDIAVEWESNGQPENNYKTTPPVLDSDGSFFLYSVLTVDKSRWQEGNVFSCSVMHEALHNHYTQKSLSLSLG
chain 2: DIQMTQSPSSLSASVGDRVTITCKASQNVGINVAWYQRKPGDAPKSLISSASYRYSGVPSRFSGSGSGTDFTLTISSLQPEDFATYFCQQYDTYPFTFGQGTKVEIKRTVAAPSVFIFPPSKEQLKSGTASVVCLLNNFYPREAKVQWKVDNALQSGNSQESVTEQDSKDSTYSLSSTLTLSKADYEKHKVYACEVTHQGLSSPVTKSFNRGEC
B2 came in with a % BB Homodimer (incorrect assembly) in data set [5] of 4.2%.

B3: BHA10 HC_20.8.37_B + BHA10 LC (IgG1) (protein)
chain 1: QVQLVQSGAEVKKPGSSVKVSCKASGYTFTTYYLHWVRYAPGQGLEWMGWIYPGNVHAQYNEKFKGRVTITADKSTSTAYMELSSLRSEDTAVYYCARSWEGFPYWGRGTTVTVSSASTKGPSVFPLAPCSKSTSGGTAALGCLVKDYFPEPVTVSWNSGALTSGVHTFPAVLQSSGLYSLSSVVTVPSSSLGTQTYICNVNHKPSNTKVDKKVEPDSGDKTHTCPPCPAPELLGGPSVFLFPPKPKDTLMISRTPEVTCVVVDVSHEDPEVKFNWYVDGVEVHNAKTKPREEQYNSTYRVVSVLTVLHQDWLNGKEYKCKVSNKALPAPIEKTISKAKGQPREPQVYTLPPSREDMTKNQVRLTCLVKGFYPSDIAVEWESNGQPENNYKTTPPVLDSDGSFFLASKLTVDKSRWQQGNVFSCSVMHEALHNHYTQKSLSLSPGK
chain 2: B2 chain 2
In data set [6], B3 came in with a % BB Homodimer (incorrect assembly) of 0%.

B4: BHA10 HC_20.8.34_B + BHA10 LC (IgG4 HC backbone) (protein)
chain 1: B2 chain 1 with R341E, R343Q, E352G, E353D, S360Q, V362T, Y403A, V405R
chain 2: B2 chain 2
For B4, the % BB Homodimer (incorrect assembly) in data set [5] is 0%.

B5: BHA10 HC_7.8.60_B + BHA10 LC (IgG1) (protein)
chain 1: B3 chain 1 with E344R, Q346R, D356E, R363S, T365V, A406Y, K408V
chain 2: B2 chain 2
In data set [6], B5 showed a % BB Homodimer (incorrect assembly) of 1.6%.

B6: BHA10 HC_20.8.34_B + BHA10 LC (IgG1) (protein)
chain 1: B3 chain 1 with E355G, R363Q
chain 2: B2 chain 2
The protein B6 registered a % BB Homodimer (incorrect assembly) in data set [6] of 0%.

B7: BHA10 HC_20.8_B + BHA10 LC (IgG1) (protein)
chain 1: B3 chain 1 with R363Q
chain 2: B2 chain 2
As to B7, in data set [6], the % BB Homodimer (incorrect assembly) worked out at 0%.

B8: anti-c-Met 5D5 VH-human IgG1 HC with CH3 mutations E357D, S364Q, Y407A, with 5D5 light chain (protein)
chain 1: EVQLVESGGGLVQPGGSLRLSCAASGYTFTSYWLHWVRQAPGKGLEWVGMIDPSNSDTRFNPNFKDRFTISADTSKNTAYLQMNSLRAEDTAVYYCATYRSYVTPLDYWGQGTLVTVSSASTKGPSVFPLAPSSKSTSGGTAALGCLVKDYFPEPVTVSWNSGALTSGVHTFPAVLQSSGLYSLSSVVTVPSSSLGTQTYICNVNHKPSNTKVDKRVEPKSCDKTHTCPPCPAPELLGGPSVFLFPPKPKDTLMISRTPEVTCVVVDVSHEDPEVKFNWYVDGVEVHNAKTKPREEQYNSTYRVVSVLTVLHQDWLNGKEYKCKVSNKALPAPIEKTISKAKGQPREPQVYTLPPSREDMTKNQVQLTCLVKGFYPSDIAVEWESNGQPENNYKTTPPVLDSDGSFFLASKLTVDKSRWQQGNVFSCSVMHEALHNHYTQKSLSLSPGK
chain 2: DIQMTQSPSSLSASVGDRVTITCKSSQSLLYTSSQKNYLAWYQQKPGKAPKLLIYWASTRESGVPSRFSGSGSGTDFTLTISSLQPEDFATYYCQQYYAYPWTFGQGTKVEIKRTVAAPSVFIFPPSDEQLKSGTASVVCLLNNFYPREAKVQWKVDNALQSGNSQESVTEQDSKDSTYSLSSTLTLSKADYEKHKVYACEVTHQGLSSPVTKSFNRGEC
On to B8, for which the figures for the % heterodimer (UPLC) in data set [7] and in data set [8] were 93% and 92.5%, respectively.

B9: matuzumab HC_20.8.34_B + matuzumab LC (IgG1) (protein)
chain 1: QVQLVQSGAEVKKPGASVKVSCKASGYTFTSHWMHWVRYAPGQGLEWIGEFNPSNGRTNYNEKFKSKATMTVDTSTNTAYMELSSLRSEDTAVYYCASRDYDYDGRYFDYWGRGTLVTVSSASTKGPSVFPLAPCSKSTSGGTAALGCLVKDYFPEPVTVSWNSGALTSGVHTFPAVLQSSGLYSLSSVVTVPSSSLGTQTYICNVNHKPSNTKVDKKVEPDSGDKTHTCPPCPAPELLGGPSVFLFPPKPKDTLMISRTPEVTCVVVDVSHEDPEVKFNWYVDGVEVHNAKTKPREEQYNSTYRVVSVLTVLHQDWLNGKEYKCKVSNKALPAPIEKTISKAKGQPREPQVYTLPPSRGDMTKNQVQLTCLVKGFYPSDIAVEWESNGQPENNYKTTPPVLDSDGSFFLASKLTVDKSRWQQGNVFSCSVMHEALHNHYTQKSLSLSPGK
chain 2: DIQMTQSPSSLSASVGDRVTITCSASSSVTYMYWYQRKPGDAPKLLIYDTSNLASGVPSRFSGSGSGTDYTFTISSLQPEDIATYYCQQWSSHIFTFGQGTKVEIKRTVAAPSVFIFPPSKEQLKSGTASVVCLLNNFYPREAKVQWKVDNALQSGNSQESVTEQDSKDSTYSLSSTLTLSKADYEKHKVYACEVTHQGLSSPVTKSFNRGEC
For B9, the results for the % BB Homodimer (incorrect assembly) in data set [6] (MetMAb × matuzumab bispecific) and in data set [6] (setting [9]) were 0% and 1.6%, respectively.

B10: matuzumab HC_20.8.34_B + matuzumab LC (IgG4 HC backbone) (protein)
chain 1: QVQLVQSGAEVKKPGASVKVSCKASGYTFTSHWMHWVRYAPGQGLEWIGEFNPSNGRTNYNEKFKSKATMTVDTSTNTAYMELSSLRSEDTAVYYCASRDYDYDGRYFDYWGRGTLVTVSSASTKGPSVFPLAPCSRSTSESTAALGCLVKDYFPEPVTVSWNSGALTSGVHTFPAVLQSSGLYSLSSVVTVPSSSLGTKTYTCNVDHKPSNTKVDKRVESDYGPPCPPCPAPEAAGGPSVFLFPPKPKDTLMISRTPEVTCVVVDVSQEDPEVQFNWYVDGVEVHNAKTKPREEQFQSTYRVVSVLTVLHQDWLNGKEYKCKVSNKGLPSSIEKTISKAKGQPREPQVYTLPPSQGDMTKNQVQLTCLVKGFYPSDIAVEWESNGQPENNYKTTPPVLDSDGSFFLASRLTVDKSRWQEGNVFSCSVMHEALHNHYTQKSLSLSLG
chain 2: B9 chain 2
With B10, the figures for the % BB Homodimer (incorrect assembly) in data set [5] (MetMAb × Matuzumab IgG BsAbs (with select CH3 Designs)) and in data set [5] (Pertuzumab × Matuzumab IgG BsAbs (with select CH3 Designs)) were 0% and 3.6%, respectively.

B11: matuzumab HC_20.8.37_B + matuzumab LC (IgG1) (protein)
chain 1: B9 chain 1 with G360E, Q368R
chain 2: B9 chain 2
Take B11: the % BB Homodimer (incorrect assembly) was determined as 0% in data set [6] (MetMAb × matuzumab bispecific) and 0.5% in data set [6] (setting [9]).

B12: matuzumab HC_7.8.60_B + matuzumab LC (IgG1) (protein)
chain 1: B9 chain 1 with E349R, Q351R, G360E, D361E, Q368S, T370V, A411Y, K413V
chain 2: B9 chain 2
Regarding B12, the % BB Homodimer (incorrect assembly) in data set [6] is 1.3%.

B13: matuzumab HC_7.8.60_B + matuzumab LC (IgG4 HC backbone) (protein)
chain 1: B10 chain 1 with E346R, Q348R, G357E, D358E, Q365S, T367V, A408Y, R410V
chain 2: B9 chain 2
As for B13, the % BB Homodimer (incorrect assembly) in data set [5] amounted to 0%.

The record behind these values is patent publication US20180009908.
